Measurements reported in US20090075929A1 (BOARD OF TRUSTEES OF THE UNIVERSITY OF ILLINOIS, published 2009).
Each block holds one binder with its values, some of them ahead of it.

What was measured:
[1] = target: T1, wild-type MADD (wtMADD), YFP-tagged, expressed in HEK293 or HeLa cells (Homo sapiens (Human), UniProt Q8WXG6 1-1647, phosphorylated in cells at S70, T173 and T1041 (recognized by anti-phospho S70, T173 and T1041 antibodies)); assay: co-IP from HeLa cells expressing MADD-YFP, western blot
T1 construct: Exogenous MADD detected with anti-YFP antibody; Order of MADD and YFP is uncertain; also called YFP-MADD; exogenous MADD; not shown: YFP tag
Description: (§1) These proteins were separated by SDS-PAGE and subjected to western blot analysis to probe for DISC components.
(§2) Samples were lysed, and the lysates were normalized for protein concentration and pre-cleared. […] Complexes were subjected to immunoblotting (WB, Western blot).

[2] = target: T2, DR4 (death receptor 4, a TRAIL receptor), endogenous (UniProt O00220 24-468); assay: IP of DR4 from HeLa lysates, immunoblot for FADD
T2 construct: Endogenous protein immunoprecipitated or blotted from lysates of human cell lines; also called endogenous DR4; DRs
Description: DR4 and DR5 from HeLa and PA-1 cells respectively were immunoprecipitated and probed for known DISC components. […] Forty-eight-hour transduced HeLa cells and PA-1 cells were collected and lysed. Lysates were normalized for protein concentration, and DR4s/DR5s were immunoprecipitated using specific antibodies.

[3] = target: T1, wild-type MADD (wtMADD), YFP-tagged, …; assay: co-IP with anti-IG20 antibody from HeLa cells expressing MADD-YFP, western blot; also not seen in the reverse IP with anti-caspase-8
Description: as §1, §2

binding result [1]: no binding
B1: FADD, endogenous (other, UniProt Q13158 1-208, looked up)
chain: MDPFLVLLHSVSSSLSSSELTELKFLCLGRVGKRKLERVQSGLDLFSMLLEQNDLEPGHTELLRELLASLRRHDLLRRVDDFEAGAAAGAAPGEEDLCAAFNVICDNVGKDWRRLARQLKVSDTKIDSIEDRYPRNLTERVRESLRIWKNTEKENATVAHLVGALRSCQMNLVADLVQEVQQARDLQNRSGAMSPMSWNSDASTSEAS
binding result [2]: binds

binding result [3]: no binding
B2: caspase-8 (pro-caspase-8, p55/53), endogenous (enzyme, UniProt Q14790 1-479, looked up)
chain: MDFSRNLYDIGEQLDSEDLASLKFLSLDYIPQRKQEPIKDALMLFQRLQEKRMLEESNLSFLKELLFRINRLDLLITYLNTRKEEMERELQTPGRAQISAYRVMLYQISEEVSRSELRSFKFLLQEEISKCKLDDDMNLLDIFIEMEKRVILGEGKLDILKRVCAQINKSLLKIINDYEEFSKERSSSLEGSPDEFSNGEELCGVMTISDSPREQDSESQTLDKVYQMKSKPRGYCLIINNHNFAKAREKVPKLHSIRDRNGTHLDAGALTTTFEELHFEIKPHDDCTVEQIYEILKIYQLMDHSNMDCFICCILSHGDKGIIYGTDGQEAPIYELTSQFTGLKCPSLAGKPKVFFIQACQGDNYQKGIPVETDSEEQPYLEMDLSSPQTRYIPDEADFLLGMATVNNCVSYRNPAEGTWYIQSLCQSLRERCPRGDDILTILTEVNYEVSNKDDKKNMGKQMPQPTFTLRKKLVFPSD
